Measured values: the supplement of paper PMC6755084

System: F1*sub RNA substrate (template-directed ligation)
Experiment: fraction ligated after 30 min (ligated reads / total reads); higher = more ligase activity; sequences stand for … in GAGACCGCAACTGAAAAGTTGT…AGTTCTGCACGTAGAAGCAAAAGGC
Conditions: 42 °C
Procedure: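 Chip-synthesised pool of F1* ligase ribozyme variants (all single and double substitutions, single, double and triple deletions in the catalytic core and GAA bulge, plus designed variants) was transcribed with T7 and reacted as a pool with excess substrate F1*sub for 30 min at 42 C in 50 mM EPPS pH 8.5, 25 mM MgCl2. Ligated and unligated bands were separated by PAGE, barcoded by RT and deep sequenced; fraction ligated = ligated reads / total reads per variant, relative activity = FL / FL of wild type (0.826). Sequences are the DNA template of the ribozyme.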

Row | Sequence | fraction ligated
1 | ATCACTTGTCTAAGACACTTTGGAGGGTTGA [3d181] | 0.155
2 | ATCACTTGTCTAAGACACTTTGGATGGGTTA [3d183] | 0.656
3 | ATCACTTGTCTAAGACACTTTGGATGGGTTG [3d184] | 0.762
4 | ATCACTTGTCTAAGACACTTTGGATGGGTTGA [2d10] | 0.765
5 | ATCACTTGTCTAAGACACTTTGGATGGTTGA [3d182] | 0.676
6 | ATCACTTGTCTAAGACACTTTGGTGGGTTGA [3d180] | 0.0503
7 | ATCACTTGTCTAAGACATTTGGATGGGTTGA [3d177] | 0.756
8 | ATCACTTGTCTAAGACCTTTGGATGGGTTGA [3d176] | 0.717
9 | ATCACTTGTCTAAGCACTTTGGATGGGTTGA [3d174] | 0.733
10 | ATCACTTGTCTAGACACTTTGGATGGGTTGA [3d172] | 0.734
11 | ATCACTTGTGAAGACACTTTGGATGGGTTGA [3d157] | 0.815
12 | ATCACTTGTGTAAACACTTTGGATGGGTTGA [3d159] | 0.837
13 | ATCACTTGTGTAAGAACTTTGGATGGGTTGA [3d161] | 0.88
14 | ATCACTTGTGTAAGACACTTGGATGGGTTGA [3d164] | 0.719
15 | ATCACTTGTGTAAGACACTTTGATGGGTTGA [3d165] | 0.453
16 | ATCACTTGTGTAAGACACTTTGGAGGGTTGA [3d167] | 0.116
17 | ATCACTTGTGTAAGACACTTTGGATGGGTTA [3d169] | 0.598
18 | ATCACTTGTGTAAGACACTTTGGATGGGTTG [3d170] | 0.838
19 | ATCACTTGTGTAAGACACTTTGGATGGGTTGA [2d9] | 0.853
20 | ATCACTTGTGTAAGACACTTTGGATGGTTGA [3d168] | 0.45
21 | ATCACTTGTGTAAGACACTTTGGTGGGTTGA [3d166] | 0.0152
22 | ATCACTTGTGTAAGACATTTGGATGGGTTGA [3d163] | 0.798

Row | Sequence | fraction ligated
23 | ATCACTTGTGTAAGACCTTTGGATGGGTTGA [3d162] | 0.811
24 | ATCACTTGTGTAAGCACTTTGGATGGGTTGA [3d160] | 0.854
25 | ATCACTTGTGTAGACACTTTGGATGGGTTGA [3d158] | 0.864
26 | ATCACTTGTTAAGACACTTTGGATGGGTTGA [3d156] | 0.787
27 | ATCACTTTCGAAGACACTTTGGATGGGTTGA [3d126] | 0.698
28 | ATCACTTTCGTAAACACTTTGGATGGGTTGA [3d128] | 0.779
29 | ATCACTTTCGTAAGAACTTTGGATGGGTTGA [3d130] | 0.849
30 | ATCACTTTCGTAAGACACTTGGATGGGTTGA [3d133] | 0.748
31 | ATCACTTTCGTAAGACACTTTGATGGGTTGA [3d134] | 0.401
32 | ATCACTTTCGTAAGACACTTTGGAGGGTTGA [3d136] | 0.0337
33 | ATCACTTTCGTAAGACACTTTGGATGGGTTA [3d138] | 0.137
34 | ATCACTTTCGTAAGACACTTTGGATGGGTTG [3d139] | 0.777
35 | ATCACTTTCGTAAGACACTTTGGATGGGTTGA [2d7] | 0.772
36 | ATCACTTTCGTAAGACACTTTGGATGGTTGA [3d137] | 0.191
37 | ATCACTTTCGTAAGACACTTTGGTGGGTTGA [3d135] | 0.00882
38 | ATCACTTTCGTAAGACATTTGGATGGGTTGA [3d132] | 0.781
39 | ATCACTTTCGTAAGACCTTTGGATGGGTTGA [3d131] | 0.752
40 | ATCACTTTCGTAAGCACTTTGGATGGGTTGA [3d129] | 0.766
41 | ATCACTTTCGTAGACACTTTGGATGGGTTGA [3d127] | 0.781
42 | ATCACTTTCTAAGACACTTTGGATGGGTTGA [3d125] | 0.753
43 | ATCACTTTGTAAGACACTTTGGATGGGTTGA [3d124] | 0.787
44 | ATCATGTCGTAAGACACTTTGGATGGGTTGA [3d86] | 0.722

Row | Sequence | fraction ligated
45 | ATCATTGCGTAAGACACTTTGGATGGGTTGA [3d88] | 0.755
46 | ATCATTGTCGAAGACACTTTGGATGGGTTGA [3d91] | 0.728
47 | ATCATTGTCGTAAACACTTTGGATGGGTTGA [3d93] | 0.77
48 | ATCATTGTCGTAAGAACTTTGGATGGGTTGA [3d95] | 0.802
49 | ATCATTGTCGTAAGACACTTGGATGGGTTGA [3d98] | 0.726
50 | ATCATTGTCGTAAGACACTTTGATGGGTTGA [3d99] | 0.664
51 | ATCATTGTCGTAAGACACTTTGGAGGGTTGA [3d101] | 0.12
52 | ATCATTGTCGTAAGACACTTTGGATGGGTTA [3d103] | 0.093
53 | ATCATTGTCGTAAGACACTTTGGATGGGTTG [3d104] | 0.703
54 | ATCATTGTCGTAAGACACTTTGGATGGGTTGA [2d5] | 0.759
55 | ATCATTGTCGTAAGACACTTTGGATGGTTGA [3d102] | 0.482
56 | ATCATTGTCGTAAGACACTTTGGTGGGTTGA [3d100] | 0.109
57 | ATCATTGTCGTAAGACATTTGGATGGGTTGA [3d97] | 0.729
58 | ATCATTGTCGTAAGACCTTTGGATGGGTTGA [3d96] | 0.717
59 | ATCATTGTCGTAAGCACTTTGGATGGGTTGA [3d94] | 0.727
60 | ATCATTGTCGTAGACACTTTGGATGGGTTGA [3d92] | 0.761
61 | ATCATTGTCTAAGACACTTTGGATGGGTTGA [3d90] | 0.663
62 | ATCATTGTGTAAGACACTTTGGATGGGTTGA [3d89] | 0.79
63 | ATCATTTCGTAAGACACTTTGGATGGGTTGA [3d87] | 0.654
64 | ATCCTGTCGTAAGACACTTTGGATGGGTTGA [3d67] | 0.683
65 | ATCCTTGCGTAAGACACTTTGGATGGGTTGA [3d69] | 0.768
66 | ATCCTTGTCGAAGACACTTTGGATGGGTTGA [3d72] | 0.773

Row | Sequence | fraction ligated
67 | ATCCTTGTCGTAAACACTTTGGATGGGTTGA [3d74] | 0.789
68 | ATCCTTGTCGTAAGAACTTTGGATGGGTTGA [3d76] | 0.719
69 | ATCCTTGTCGTAAGACACTTGGATGGGTTGA [3d79] | 0.733
70 | ATCCTTGTCGTAAGACACTTTGATGGGTTGA [3d80] | 0.71
71 | ATCCTTGTCGTAAGACACTTTGGAGGGTTGA [3d82] | 0.1
72 | ATCCTTGTCGTAAGACACTTTGGATGGGTTA [3d84] | 0.218
73 | ATCCTTGTCGTAAGACACTTTGGATGGGTTG [3d85] | 0.716
74 | ATCCTTGTCGTAAGACACTTTGGATGGGTTGA [2d4] | 0.744
75 | ATCCTTGTCGTAAGACACTTTGGATGGTTGA [3d83] | 0.138
76 | ATCCTTGTCGTAAGACACTTTGGTGGGTTGA [3d81] | 0.169
77 | ATCCTTGTCGTAAGACATTTGGATGGGTTGA [3d78] | 0.725
78 | ATCCTTGTCGTAAGACCTTTGGATGGGTTGA [3d77] | 0.703
79 | ATCCTTGTCGTAAGCACTTTGGATGGGTTGA [3d75] | 0.715
80 | ATCCTTGTCGTAGACACTTTGGATGGGTTGA [3d73] | 0.758
81 | ATCCTTGTCTAAGACACTTTGGATGGGTTGA [3d71] | 0.716
82 | ATCCTTGTGTAAGACACTTTGGATGGGTTGA [3d70] | 0.734
83 | ATCCTTTCGTAAGACACTTTGGATGGGTTGA [3d68] | 0.791
84 | ATCTTGTCGTAAGACACTTTGGATGGGTTGA [3d46] | 0.774
85 | CACTTGTCGTAAGACACTTTGGATGGGTTGA [3d1] | 0.637
86 | GGTATCACTTGTCGTAAGACACTTTGGATGTTGA [s36] | 0.000954
87 | GGTTATCACTTGTCGTAAGACACTTTGGATGTGA [s37] | 0
88 | GTATCACTTGTCGTAAGACACTTTGGATGGTTGA [s35] | 0.242

Row | Sequence | fraction ligated
89 | TAACTGTCGTAAGACACTTTGGATGGGTTGA [3d509] | 0.175
90 | TAACTTGCGTAAGACACTTTGGATGGGTTGA [3d511] | 0.085
91 | TAACTTGTCGAAGACACTTTGGATGGGTTGA [3d514] | 0.112
92 | TAACTTGTCGTAAACACTTTGGATGGGTTGA [3d516] | 0.0735
93 | TAACTTGTCGTAAGAACTTTGGATGGGTTGA [3d518] | 0.21
94 | TAACTTGTCGTAAGACACTTGGATGGGTTGA [3d521] | 0.266
95 | TAACTTGTCGTAAGACACTTTGATGGGTTGA [3d522] | 0.0453
96 | TAACTTGTCGTAAGACACTTTGGAGGGTTGA [3d524] | 0.0881
97 | TAACTTGTCGTAAGACACTTTGGATGGGTTA [3d526] | 0.0297
98 | TAACTTGTCGTAAGACACTTTGGATGGGTTG [3d527] | 0.153
99 | TAACTTGTCGTAAGACACTTTGGATGGGTTGA [2d47] | 0.271
100 | TAACTTGTCGTAAGACACTTTGGATGGTTGA [3d525] | 0.309
101 | TAACTTGTCGTAAGACACTTTGGTGGGTTGA [3d523] | 0.0256
102 | TAACTTGTCGTAAGACATTTGGATGGGTTGA [3d520] | 0.38
103 | TAACTTGTCGTAAGACCTTTGGATGGGTTGA [3d519] | 0.196
104 | TAACTTGTCGTAAGCACTTTGGATGGGTTGA [3d517] | 0.142
105 | TAACTTGTCGTAGACACTTTGGATGGGTTGA [3d515] | 0.177
106 | TAACTTGTCTAAGACACTTTGGATGGGTTGA [3d513] | 0.123
107 | TAACTTGTGTAAGACACTTTGGATGGGTTGA [3d512] | 0.547
108 | TAACTTTCGTAAGACACTTTGGATGGGTTGA [3d510] | 0.0478
109 | TAATTGTCGTAAGACACTTTGGATGGGTTGA [3d508] | 0.0528
110 | TACACGTCGTAAGACACTTTGGATGGGTTGA [3d566] | 0.266
